Patent publication US20240294670A1 (University of Texas, published 2024)

Biological target: T1, D3Z041_MOUSE (mouse, UniProt D3Z041 1-699)
T1 construct: also called tr|D3Z041|D3Z041_MOUSE
T1 sequence: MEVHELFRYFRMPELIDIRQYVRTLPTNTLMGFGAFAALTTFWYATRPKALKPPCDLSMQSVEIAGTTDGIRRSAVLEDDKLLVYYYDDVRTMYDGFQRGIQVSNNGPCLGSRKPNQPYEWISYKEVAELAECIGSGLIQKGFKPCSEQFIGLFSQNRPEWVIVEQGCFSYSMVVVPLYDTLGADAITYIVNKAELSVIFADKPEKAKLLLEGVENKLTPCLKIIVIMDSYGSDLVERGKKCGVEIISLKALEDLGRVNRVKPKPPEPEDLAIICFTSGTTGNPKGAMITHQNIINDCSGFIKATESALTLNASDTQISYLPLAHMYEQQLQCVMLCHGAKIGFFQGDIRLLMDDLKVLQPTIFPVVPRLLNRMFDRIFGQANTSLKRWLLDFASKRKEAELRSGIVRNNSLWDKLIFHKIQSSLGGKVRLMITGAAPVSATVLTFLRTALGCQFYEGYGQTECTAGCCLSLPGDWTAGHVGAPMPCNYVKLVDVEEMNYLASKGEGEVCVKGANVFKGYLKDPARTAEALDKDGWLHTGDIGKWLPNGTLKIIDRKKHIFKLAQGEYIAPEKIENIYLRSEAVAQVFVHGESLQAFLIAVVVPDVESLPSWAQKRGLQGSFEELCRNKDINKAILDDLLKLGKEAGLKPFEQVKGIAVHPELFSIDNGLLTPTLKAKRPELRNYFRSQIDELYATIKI
Assay: anti-His co-IP of rCHI3L1 from Kupffer cell lysate, MS; listed under 'proteins bound to CHI3L1'
Outline: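 Kupffer cells from WT mice 3 h after APAP were incubated with His-tagged rCHI3L1; lysate immunoprecipitated with anti-His antibody and the pulled-down fraction identified by LC/MS.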

B1: recombinant mouse CHI3L1 (ligand)
chain: not shown
notes: His-tagged; also called mCHI3L1; mChi3l1
  binding result: binds
